Measured values published in patent US9682130B2 (priority 2015, dated 2017).
Several values for one entry are separate records, joined by “and”; a condition that tells them apart may be missing. Equal values may be shown once.

Tests used:
NFκB = settings: small in vitro study; cited from earlier work
HIV-1 = settings: final concentrations that are not cytotoxic; cited from earlier work
[1] = test system: Human Adenovirus 8 (Ad8 strain 13306); assay: Neutral red lysosomal uptake assay, Adenovirus 8; format: cell-based; settings: Adenovirus 8, MA-104 cells
Experimental: To assess in vitro cytotoxicity, both a cytopathic effects of a virus (CPE) regression assay and a neutral red lysosomal uptake cell viability assay was performed essentially as described in, e.g., Repetto, et al., Neutral Red Uptake Assay for the Estimation of Cell Viability/Cytotoxicity, Nat. Protoc. 3: 1125-1131 (2008), the content of which is hereby incorporated by reference in its entirety. Ninety-six-well plates were seeded with MA-104 cells at 1×10^5 cells/mL and incubated overnight at 37° C. with 5% CO2. […] Each dilution was added to 5 wells of a 96-well plate with 80% to 100% confluent cells, and three wells of each dilution were then infected with one of the two test viruses. Two wells remained uninfected as controls for toxicity. Six wells per plate were set aside as uninfected, untreated cell controls, and six wells per plate were infected with no treatment as virus controls. […] Assay plates were incubated at 37° C. with 5% CO2. […] After CPE reduction assay was completed, a neutral red lysosomal uptake assay was conducted by filling each well with 0.011% (m/v) neutral red, a vital stain. The plates then were incubated for about 2 hours at 37° C. in the dark. […] The plates were then read on a spectrophotometer at 540 nm to quantify the neutral red taken up by the healthy cells. […]

[2] = test system: Human Adenovirus 5 (AD5 strain NYS #98-1836); assay: microbe, parasite or virus in culture; format: cell-based; settings: Adenovirus 5, MA-104 cells
Experimental: To assess in vitro cytotoxicity, both a cytopathic effects of a virus (CPE) regression assay and a neutral red lysosomal uptake cell viability assay was performed essentially as described in, e.g., Repetto, et al., Neutral Red Uptake Assay for the Estimation of Cell Viability/Cytotoxicity, Nat. Protoc. 3: 1125-1131 (2008), the content of which is hereby incorporated by reference in its entirety. Ninety-six-well plates were seeded with MA-104 cells at 1×10^5 cells/mL and incubated overnight at 37° C. with 5% CO2. […] Each dilution was added to 5 wells of a 96-well plate with 80% to 100% confluent cells, and three wells of each dilution were then infected with one of the two test viruses. Two wells remained uninfected as controls for toxicity. Six wells per plate were set aside as uninfected, untreated cell controls, and six wells per plate were infected with no treatment as virus controls. […] Assay plates were incubated at 37° C. with 5% CO2. […] After CPE reduction assay was completed, a neutral red lysosomal uptake assay was conducted by filling each well with 0.011% (m/v) neutral red, a vital stain. The plates then were incubated for about 2 hours at 37° C. in the dark. The unincorporated neutral red solution was removed from the wells and the incorporated dye was then eluted by adding Sorensen's citrate-buffered ethanol. The plates were then read on a spectrophotometer at 540 nm to quantify the neutral red taken up by the healthy cells. The optical density of test wells was converted to percent of cell control and normalized to the virus controls.
(§1) The concentration of test compound required to inhibit CPE by 50% or reduce red uptake into cells by 50% (EC50) was calculated by regression analysis. The toxicity of the compound without virus present was similarly calculated using the uninfected wells treated with test compounds compared with untreated cell controls. The concentration of compound that would cause 50% cytotoxic effects in the absence of virus (CC50) was estimated by linear regression analysis. The selectivity index (SI) is the CC50 divided by EC50.

[3] = test system: Human Adenovirus 8 (Ad8 strain 13306); assay: Virus yield reduction assay, Adenovirus 8; format: cell-based
Experimental: as §1
(§2) The virus yield reduction assay was used to determine actual virus amounts in the presence and absence of the test compound; this is the confirmatory assay for antiviral activity. […] Replicate wells of each compound concentration or control were pooled and frozen at −80° C. Samples were thawed and diluted by 10-fold serial dilutions. A 100 μL aliquot of each dilution was then plated onto 4 replicate wells of 96-well plates seeded with the applicable cells for each virus strain. Plates were incubated as noted above until viral CPE reached its endpoint, then each well was scored microscopically for the presence of viral CPE. The virus titer was determined based on the endpoint using the Reed-Muench method. […]

A549 cells = assay: In vitro cytotoxicity, ALAMARBLUE fluorometric stain; format: cell-based; settings: 2 days
Experimental: Ophthalmol. Vis. Sci. 50: 5295-5299 (2009), which is hereby incorporated by reference in its entirety.
To assess in vitro cytotoxicity, 96-well plates were seeded with A549 cells at 1×10^5 cells/mL and incubated overnight at 37° C. with 5% CO2. […] After removal of the tissue culture media, 100 μL of each dilution was added to 3 wells of a 96-well plate with 80% to 100% confluent cells. […] Each test and control treatment was incubated on the A549 monolayers for 2 days at 37° C. with 5% CO2. A 100 μL aliquot of the fluorometric stain was then added to each well, and the cells incubated for 1 hour at 37° C. with 5% CO2. The fluorometric stain (ALAMARBLUE®, Invitrogen, Carlsbad, Calif.) acts as a redox indicator that is reduced to a fluorescent form by metabolically active living cells. Fluorescence was then be read with a plate reader (Biotek Synergy 2; Biotek), with a 500/27-nm excitation filter and a 620/40-nm emission filter, at a sensitivity of 35.

[4] = test system: Human Adenovirus 5 (AD5 strain NYS #98-1836); assay: Virus yield reduction assay, Adenovirus 5; format: cell-based
Experimental: as §1, §2

B1: Ranpirnase (protein, UniProt P22069 1-104, looked up)
Protein P-30: QDWLTFQKKHITNTRDVDCDNIMSTNLFHCKDKNTFIYSRPEPVKAICKGIIASKNVLTTSEFYLSDCNVTSRPCKYKLKKSTNKFCVTCENQAPVHFVGVGSC
notes: amphibian ribonuclease originally isolated from oocytes and/or early embryos of Rana pipiens; pancreatic ribonuclease (RNase A) superfamily, about 12 kD
NFκB
  Translocation of NFκB into the nucleus: inhibits translocation of NFκB into the nucleus
HIV-1
  Inhibition of replication of HIV-1: up to 99.9%
[1]
  Neutral Red Assay EC50: <100 µg/mL
[2]
  Neutral Red Assay EC50: <100 µg/mL
[3]
  Yield Reduction Assay EC50: 25.1 µg/mL
A549 cells; 0.001 μM, second experiment
  % cytotoxicity, Mean: 3.2%
A549 cells; 0.001 μM, second experiment, single assays 1-3, 0.001 µM
  % cytotoxicity: 5.7% and 2.3% and 1.6%
A549 cells; 0.01 μM, second experiment
  % cytotoxicity, Mean: 7.4%
A549 cells; 0.01 μM, second experiment, single assays 1-3, 0.01 µM
  % cytotoxicity: 8.6% and 11.7% and 7.9%
A549 cells; 0.1 μM, second experiment
  % cytotoxicity, Mean: 5.8%
A549 cells; 0.1 μM, second experiment, single assays 1-3, 0.1 µM
  % cytotoxicity: 6.0% and 5.3% and 6.1%
A549 cells; 1.0 μM, first experiment, single assays 1-3, 1 µM
  % cytotoxicity: 60.9% and 61.3% and 63.7%
A549 cells; 1.0 μM, second experiment, single assays 1-3, 1 µM
  % cytotoxicity: 11.1% and 14.6% and 18.1%
A549 cells; 10 μM, first experiment, single assays 1-3, 10 µM
  % cytotoxicity: 65.7% and 66.5% and 67.1%
A549 cells; 10 μM, second experiment, single assays 1-3, 10 µM
  % cytotoxicity: 29.1% and 32.7% and 37.3%
A549 cells; 50 μM, first experiment, single assays 1-3, 50 µM
  % cytotoxicity: 75.1% and 74.0%
A549 cells; 50 μM, second experiment, single assays 1-3, 50 µM
  % cytotoxicity: 86.7% and 86.4%
[4]
  Yield Reduction Assay EC50: 21.54 µg/mL
